# Biological target: T1, human vascular endothelial growth factor receptor-2 Fc chimera (KDR-Fc) (human, UniProt P35968 20-764)
# T1 construct: range 1-764; also called human VEGFR-2; hKDR; not shown: human IgG1 Fc
# Test: radioactive equilibrium binding (assay not given)
# Procedure: (§1) To prepare ³⁵S-labeled binding proteins for analysis, mRNA was prepared as described above for RNA-protein fusion production but the linker ligation step was omitted. The mRNA was expressed using rabbit reticulocyte lysate translation kit (Ambion) in the presence of ³⁵S-labeled Met at 30° C. for 1 hour. Expressed protein was purified on M2-agarose Flag beads (Sigma) as described above. This procedure produced the encoded protein without the nucleic acid tail. In a direct binding assay, VEGF-R2-Fc fusions in concentrations ranging from 0 to 200 nM were added to a constant concentration of the purified protein (0.2 or 0.5 nM) and incubated at 30° C. for 1 hour in buffer B. The receptor-binder complexes were captured using Protein A magnetic beads for another 10 minutes at room temperature using a Kingfisher™ The beads were washed with six reaction volumes of buffer B. The protein was eluted from the beads with 100 μL of 0.1 M KOH. […] of the reaction mixture and elution were dried onto a LumaPlate-96 (Packard) and the amount of ³⁵S on the plate was measured using a TopCount NXT instrument (Packard). The amount of fibronectin-based scaffold protein bound to the target was estimated as a percent of radioactivity eluted from Protein A magnetic beads compare to radioactivity in the reaction mixture. Nonspecific binding of fibronectin-based scaffold proteins to the beads was determined by measuring binding in the absence of KDR-Fc and represented less than 1-2% of the input. Specific binding was obtained through subtraction of nonspecific binding from total binding. Data was analyzed using the GraphPad Prizm software (GraphPad Software, Inc, San Diego, Calif.), fitted using a one site, non-linear binding equation.
# T1 sequence (P35968 20-764 limits assumed, change not shown, form in doubt): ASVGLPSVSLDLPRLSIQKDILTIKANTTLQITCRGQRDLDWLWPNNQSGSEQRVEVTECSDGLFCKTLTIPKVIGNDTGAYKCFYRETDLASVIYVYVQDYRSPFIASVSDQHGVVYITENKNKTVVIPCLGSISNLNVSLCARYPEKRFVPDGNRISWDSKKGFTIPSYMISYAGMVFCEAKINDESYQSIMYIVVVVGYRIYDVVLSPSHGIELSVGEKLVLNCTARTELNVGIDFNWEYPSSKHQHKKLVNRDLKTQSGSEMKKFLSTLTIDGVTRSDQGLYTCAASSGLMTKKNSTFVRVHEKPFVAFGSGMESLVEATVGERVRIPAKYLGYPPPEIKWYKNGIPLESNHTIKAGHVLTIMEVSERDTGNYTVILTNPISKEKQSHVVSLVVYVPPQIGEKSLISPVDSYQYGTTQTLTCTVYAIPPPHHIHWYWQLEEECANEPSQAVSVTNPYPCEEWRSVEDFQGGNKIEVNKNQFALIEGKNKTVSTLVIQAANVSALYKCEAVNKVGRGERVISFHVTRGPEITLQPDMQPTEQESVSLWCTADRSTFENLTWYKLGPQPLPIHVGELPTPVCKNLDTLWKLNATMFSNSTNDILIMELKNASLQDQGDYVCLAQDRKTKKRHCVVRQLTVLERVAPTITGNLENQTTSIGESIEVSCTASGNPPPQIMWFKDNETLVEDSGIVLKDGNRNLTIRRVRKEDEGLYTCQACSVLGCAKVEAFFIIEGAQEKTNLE
row,Kd [nM],Binder
1,0.55,"K1 (designed binder, Del 1-8 10Fn3 clone; tag not included) EVVAATPTSLLISWRHPHFPTRYYRITYGETGGNSPVQEFTVPLQPPTATISGLKPGVDYTITGYAVTMGLYGHELLTPISINYRT"
2,1.19,"K2 (designed binder, Del 1-8 10Fn3 clone; Flag tag of the assay form not included) EVVAATPTSLLISWRHPHFPTRYYRITYGETGGNSPVQEFTVPLQPPTATISGLKPGVDYTITGYAVTDGENGQFLLVPISINYRT"

# Biological target: T2, human vascular endothelial growth factor receptor-2 Fc chimera (KDR-Fc) (human, UniProt P35968 20-764)
# T2 construct: range 1-764; purchased from R&D Systems; also called hKDR; human VEGF-R2-Fc; not shown: human IgG1 Fc
# Test: radioactive equilibrium binding, 1 nM KDR-Fc
# Outline: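 Tracer: ³⁵S-Met protein from reticulocyte lysate, Flag-bead purified, no nucleic acid tail. 0.2/0.5 nM binder + 0–200 nM receptor-Fc, 30° C 1 h, buffer B; Protein A bead capture 10 min RT; 0.1 M KOH elution; scintillation count.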
# T2 sequence (P35968 20-764 limits assumed, change not shown, form in doubt): as the sequence (P35968 20-764 limits assumed, change not shown, form in doubt) above
row,Binder,"Binding to 1 nM KDR, % [%]"
1,"4C4 PR3 (designed binder, tag left out) EVVAATPTSLLISWRHPHFPTRYYRITYGETGGNSPVQEFTVPLQPPTATISGLKPGVDYTITGYAVTVAQDDHELFTPISINYRT",10
2,"4D2 PR3 (designed binder, tag left out) EVVAATPTSLLISWRHPHFPTRYYRITYGETGGNSPVQEFTVPLQPPTATISGLKPGVDYTITGYAVTVAQNNHELITPISINYRT",8
3,"3′D4 PR4 (designed binder, tag left out) EVVAATPTSLLISWRHPHFPTRYYRITYGETGGNSPVQEFTVPLQPPTATISGLKPGVDYTITGYAVTLAHNDRELITPISINYRT",12
4,"3′F7 PR4 (designed binder, tag left out) EVVAATPTSLLISWRHPHFPTRYYRITYGETGGNSPVQEFTVPLQPPTATISGLKPGVDYTITGYAVTEGQNGSELIVPISINYRT",14
5,"3G10 PR3 (designed binder, tag left out) EVVAATPTSLLISWRHPHFPTRYYRITYGETGGNSPVQEFTVPLQPPTATISGLKPGVDYTITGYAVTVVHNGHEILTPISINYRT",10
6,"3′E4 PR4 (designed binder, tag left out) EVVAATPTSLLISWRHPHFPTRYYRITYGETGGNSPVQEFTVPLQPPTATISGLKPGVDYTITGYAVTVGPNDRELIVPISINYRT",12
7,"4A3 PR3 (designed binder, tag left out) EVVAATPTSLLISWRHPHFPTRYYRITYGETGGNSPVQEFTVPLQPPTATISGLKPGVDYTITGYAVTVAQDEHELITPISINYRT",6
8,"4′B6 PR4 (designed binder, tag left out) EVVAATPTSLLISWRHPHFPTRYYRITYGETGGNSPVQEFTVPLQPPTATISGLKPGVDYTITGYAVTLAQNDHELITPISINYRT",11

# Second part, the binder after the results:
row,"Binding to 1 nM KDR, % [%]",Binder
1,13,"4B7 PR3 (designed binder, tag left out) EVVAATPTSLLISWRHPHFPTRYYRITYGETGGNSPVQEFTVPLQPPTATISGLKPGVDYTITGYAVTVTQNDHELFTPISINYRT"
2,5,"3′E6 PR4 (designed binder, tag left out) EVVAATPTSLLISWRHPHFPTRYYRITYGETGGNSPVQEFTVPLQPPTATISGLKPGVDYTITGYAVTFGQNGKEFRIPISINYRT"
3,8,"4A2 PR3 (designed binder, tag left out) EVVAATPTSLLISWRHPHFPTRYYRITYGETGGNSPVQEFTVPLQPPTATISGLKPGVDYTITGYAVTVAQNAHELMTPISINYRT"
4,13,"4′G8 PR4 (designed binder, tag left out) EVVAATPTSLLISWRHPHFPTRYYRITYGETGGNSPVQEFTVPLQPPTATISGLKPGVDYTITGYAVTVAQNGHELLTPISINYRT"
5,9,"3′A3 PR4 (designed binder, tag left out) EVVAATPTSLLISWRHPHFPTRYYRITYGETGGNSPVQEFTVPLQPPTATISGLKPGVDYTITGYAVTRAQNDHELITPISINYRT"
6,12,"3′E8 PR4 (designed binder, tag left out) EVVAATPTSLLISWRHPHFPTRYYRITYGETGGNSPVQEFTVPLQPPTATISGLKPGVDYTITGYAVTVAQNDRQLFTPISINYRT"
7,7,"3′D12 PR4 (designed binder, tag left out) EVVAATPTSLLISWRHPHFPTRYYRITYGETGGNSPVQEFTVPLQPPTATISGLKPGVDYTITGYAVTGEQNDYELLVPISINYRT"
8,11,"3H9 PR3 (designed binder, tag left out) EVVAATPTSLLISWRHPHFPTRYYRITYGETGGNSPVQEFTVPLQPPTATISGLKPGVDYTITGYAVTVSQQNHELLTPISINYRT"
9,13,"4F12 PR3 (designed binder, tag left out) EVVAATPTSLLISWRHPHFPTRYYRITYGETGGNSPVQEFTVPLQPPTATISGLKPGVDYTITGYAVTVTQNGHELITPISINYRT"
10,8,"4G4 PR3 (designed binder, tag left out) EVVAATPTSLLISWRHPHFPTRYYRITYGETGGNSPVQEFTVPLQPPTATISGLKPGVDYTITGYAVTLGQNDHELLTPISINYRT"
11,14,"4B6 PR3 (designed binder, tag left out) EVVAATPTSLLISWRHPHFPTRYYRITYGETGGNSPVQEFTVPLQPPTATISGLKPGVDYTITGYAVTVGQNDHELFTPISINYRT"
12,14,"4C11 PR3 (designed binder, tag left out) EVVAATPTSLLISWRHPHFPTRYYRITYGETGGNSPVQEFTVPLQPPTATISGLKPGVDYTITGYAVTMAQNDRELITPISINYRT"

# Biological target: T1, human vascular endothelial growth …
# Test: binding to 1 nM KDR-Fc, % of input; radioactive equilibrium binding (assay not given)
# Procedure: as §1
row,Binder,"Binding to 1 nM KDR, % [%]"
1,"E10 (designed binder, Del 1-8 10Fn3 clone; Flag tag not included) EVVAATPTSLLISWRHPHFPTRYYRITYGETGGNSPVQEFTVPLQPPTATISGLKPGVDYTITGYAVTEGRNGRELFIPISINYRT",53
2,"E12 (designed binder, Del 1-8 10Fn3 clone; Flag tag of the radioactive-assay form not included) EVVAATPTSLLISWRHPHFPTRYYRITYGETGGNSPVQEFTVPLQPPTATISGLKPGVDYTITGYAVTFARDGHEILTPISINYRT",36
3,"E15 (designed binder, Del 1-8 10Fn3 clone; Flag tag of the radioactive-assay form not included) EVVAATPTSLLISWRHPHFPTRYYRITYGETGGNSPVQEFTVPLQPPTATISGLKPGVDYTITGYAVTLEPNGRYLMVPISINYRT",52
4,"E22 (designed binder, Del 1-8 10Fn3 clone; Flag tag of the radioactive-assay form not included) EVVAATPTSLLISWRHPHFPTRYYRITYGETGGNSPVQEFTVPLQPPTATISGLKPGVDYTITGYAVTLGRNDRELLTPISINYRT",45
5,"K1 (designed binder, Del 1-8 10Fn3 clone; tag not included) EVVAATPTSLLISWRHPHFPTRYYRITYGETGGNSPVQEFTVPLQPPTATISGLKPGVDYTITGYAVTMGLYGHELLTPISINYRT",48
6,"E2 (designed binder, Del 1-8 10Fn3 clone; Flag tag of the radioactive-assay form not included) EVVAATPTSLLISWRHPHFPTRYYRITYGETGGNSPVQEFTVPLQPPTATISGLKPGVDYTITGYAVTDGPNDRLLNIPISINYRT",53
7,"K2 (designed binder, Del 1-8 10Fn3 clone; Flag tag of the assay form not included) EVVAATPTSLLISWRHPHFPTRYYRITYGETGGNSPVQEFTVPLQPPTATISGLKPGVDYTITGYAVTDGENGQFLLVPISINYRT",48

# Results, then the binder that gave them:
row,"Binding to 1 nM KDR, % [%]",Binder
1,38,"E13 (designed binder, Del 1-8 10Fn3 clone; Flag tag of the radioactive-assay form not included) EVVAATPTSLLISWRHPHFPTRYYRITYGETGGNSPVQEFTVPLQPPTATISGLKPGVDYTITGYAVTLEQNGRELMTPISINYRT"
2,47,"E21 (designed binder, Del 1-8 10Fn3 clone; Flag tag of the radioactive-assay form not included) EVVAATPTSLLISWRHPHFPTRYYRITYGETGGNSPVQEFTVPLQPPTATISGLKPGVDYTITGYAVTWGYKDHELLIPISINYRT"
